In patent US20240262910A1 one finds RLU data, which are given here for 3 molecules.

The target of experiment [1] is cynomolgus monkey CD33 extracellular domain with 6xHis-tag (cynomolgus monkey). Put plainly: ELISA, hybridoma supernatant.
The target of experiment [2] is mouse CD33 extracellular domain with 6xHis-tag (mouse) (UniProt Q63994). Put plainly: ELISA, hybridoma supernatant. A general note: In an ELISA, binding on a coated surface is turned into a signal by an enzyme label.
Sequence of mouse CD33 extracellular domain with 6xHis-tag (mouse) (Q63994 other isoform, or with tags, fused parts or gaps limits assumed): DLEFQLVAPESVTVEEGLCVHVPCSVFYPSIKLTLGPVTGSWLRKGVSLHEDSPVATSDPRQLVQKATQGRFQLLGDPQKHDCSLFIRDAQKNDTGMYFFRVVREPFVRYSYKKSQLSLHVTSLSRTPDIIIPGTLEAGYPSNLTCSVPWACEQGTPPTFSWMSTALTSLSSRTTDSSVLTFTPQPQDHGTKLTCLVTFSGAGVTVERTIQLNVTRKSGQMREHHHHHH

B1: 1-A20 (antibody, V domains shown)
VH: QVQLQESGPGLVKPSETLSLTCTVSGDSISSYYWSWIRQPAGKGLEWIGRIYTSGNTNYNPSLKSRVTMSVDKSKNQFSLKLRSVTAADTAVYYCARDGDNRDSDAFDIWGQGTMVTVSS
VL: SPGTLSLSPGERATLSCRASQNISSSYLAWCQQKPGQAPRLFIYGTSRRATGIPDRFSGSGSGTDFTLTISRLEPEDFAVYYCQQYGSSPLTFGGGTKVEIK
For the molecule B1, in experiment [1], the RLU is 35500 RLU.

B2: 1-H19 (antibody, V domains shown)
VH: QVQLQESGPGLVKPSETLSLTCTVSGGSISTYYWSWIRQPAGKGLEWIGRIYTSGNTNYNPSLKSRVTMSVDTSKNQLSLKLRSVTAADTAVYYCARDGDNRNSDAFDIWGQGTMVTVSS
VL: QSVLTQPPSVSGAPGQRVTISCTGSSSNIGAGYDVHWYQQLPGTAPKLLIYGNSNRPSGVPDRFSGSKSGTSASLAITGLQAEDEADYYCQSYDRSLSGWVFGGGTKLTVL
As for B2, the RLU in experiment [1] is 22500 RLU.

B3: 3-P14 (hybridoma antibody) (antibody, V domains shown)
VH: EVQLLESGGGLVQPGGSLRLSCAASGFTFSTYAMSWVRQAPGKGLEWVSAISGRGGSTYYTDSVKGRFTISRDNSKNTVSLQMNSLRAEDTAVYYCAGRGDYYYYYGMDVWGQGTTVTVSA
VL: DIVMTQSPLSSPVTLGQPASFSCRSSQSLVYSDGNTYLSWLQQRPGQPPRLLIYKISNRFSGVPDRFSGSGAGTDFTLKISRVEAEDVGVYYCMQSTQFPHTFGQGTKLEIK
B3: the values for the RLU in experiment [1] and in experiment [2] were 12700 RLU and 13700 RLU, respectively.
